US20040214774A1

Legend:
apoE3 (human) = apoE3 (human) (UniProt P02649); assay: cell-based or functional assay
apoE4 (human) [1] = target: apoE4 (human) (UniProt P02649); assay: cell-based or functional assay
apoE4 (human) [2] = target: apoE4 (human) (UniProt P02649); assay: competitive inhibition ELISA: lipidated apoE4 100 nM preincubated with Aβ12-28P (0-400 nM), added to Aβ1-40 coated wells; one-site competition fit

Sequence of apoE4 (human) (P02649 19-317 C130R limits assumed): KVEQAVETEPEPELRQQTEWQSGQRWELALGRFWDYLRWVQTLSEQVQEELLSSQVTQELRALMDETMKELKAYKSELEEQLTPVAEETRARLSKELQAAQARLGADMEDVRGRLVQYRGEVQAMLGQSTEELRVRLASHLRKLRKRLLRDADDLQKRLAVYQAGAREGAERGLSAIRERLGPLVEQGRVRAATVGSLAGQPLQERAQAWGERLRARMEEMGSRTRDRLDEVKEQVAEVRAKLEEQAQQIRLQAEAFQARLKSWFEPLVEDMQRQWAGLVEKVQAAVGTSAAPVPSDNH
Sequence of apoE3 (human) (P02649 19-317 limits assumed): as the sequence (P02649 19-317 C130R limits assumed) above, with R112C counted along it

Question: For Aβ12-28P (peptide), which relative reduction in Thioflavin-T fluorescence of Aβ1-42 with apoE3 after 24 h of incubation (apoE3 (human)) is on record?
Answer: The relative reduction in Thioflavin-T fluorescence of Aβ1-42 with apoE3 after 24 h of incubation was 14.5%.

Question: And the relative reduction in Thioflavin-T fluorescence of Aβ1-42 with apoE3 by day six (apoE3 (human))?
Answer: Its relative reduction in Thioflavin-T fluorescence of Aβ1-42 with apoE3 by day six is 48.3%.

Question: And the relative reduction in Thioflavin-T fluorescence of Aβ1-42 with apoE4 after 24 h of incubation (apoE4 (human) [1])?
Answer: The relative reduction in Thioflavin-T fluorescence of Aβ1-42 with apoE4 after 24 h of incubation was 25.3%.

Question: What about the relative reduction in Thioflavin-T fluorescence of Aβ1-42 with apoE4 by day six (apoE4 (human) [1]) of the same substance?
Answer: Its relative reduction in Thioflavin-T fluorescence of Aβ1-42 with apoE4 by day six is 52.3%.

Question: And the IC50 (apoE4 (human) [2])?
Answer: The IC50 was 36.7 nM.
